From US20160311921A1

Target: farletuzumab
Experiment: cell-based or functional assay

Chain of farletuzumab (heavy, as listed by the source, chain 1 of 2): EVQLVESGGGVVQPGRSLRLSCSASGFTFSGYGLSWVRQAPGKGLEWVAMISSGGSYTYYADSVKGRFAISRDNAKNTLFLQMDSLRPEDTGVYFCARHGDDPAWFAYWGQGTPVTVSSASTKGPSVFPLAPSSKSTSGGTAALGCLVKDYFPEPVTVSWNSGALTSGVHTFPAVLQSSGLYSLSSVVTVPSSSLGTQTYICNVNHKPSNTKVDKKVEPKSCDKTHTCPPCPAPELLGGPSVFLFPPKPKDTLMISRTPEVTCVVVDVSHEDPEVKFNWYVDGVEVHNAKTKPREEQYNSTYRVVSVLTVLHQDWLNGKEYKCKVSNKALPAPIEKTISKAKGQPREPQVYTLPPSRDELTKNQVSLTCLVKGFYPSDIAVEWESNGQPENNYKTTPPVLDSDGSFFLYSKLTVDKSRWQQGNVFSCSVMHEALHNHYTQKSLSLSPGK
Chain of farletuzumab (light, as listed by the source, chain 2 of 2): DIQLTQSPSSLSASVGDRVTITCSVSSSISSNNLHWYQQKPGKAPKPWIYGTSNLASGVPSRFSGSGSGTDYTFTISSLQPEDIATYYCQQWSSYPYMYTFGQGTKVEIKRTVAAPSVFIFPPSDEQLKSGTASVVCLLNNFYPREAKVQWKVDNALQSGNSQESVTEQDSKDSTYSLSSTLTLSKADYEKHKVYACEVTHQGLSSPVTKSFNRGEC

**Q.** How did the inhibition of Farletuzumab ADCC activity (luminescence, Promega ADCC Reporter Bioassay Core Kit, CHO-hFR-α target cells) turn out when “cancer antigen 125 (CA125) (from UniProt Q8WXI7 1-14451)” was run?
**A.** 50%
